Results reported in patent US12291578B2, “Anti-matrix metalloproteinase 7 (MMP-7) inhibitory antibody and uses thereof” (Yeda Research and Development Co. Ltd., priority 2019, dated 2025).
Entries after “also recorded” stand apart in the source; their conditions may differ.

Tests used:
[1] = target: MMP-13 (Homo sapiens, UniProt P45452); assay: ELISA binding, cross-reactivity
[2] = target: MMP-12 (Homo sapiens, UniProt P39900); assay: Enzymatic activity of related MMPs (fluorogenic peptide); type: biochemical; details: in vitro
MMP-12, sequence (P39900 106-470): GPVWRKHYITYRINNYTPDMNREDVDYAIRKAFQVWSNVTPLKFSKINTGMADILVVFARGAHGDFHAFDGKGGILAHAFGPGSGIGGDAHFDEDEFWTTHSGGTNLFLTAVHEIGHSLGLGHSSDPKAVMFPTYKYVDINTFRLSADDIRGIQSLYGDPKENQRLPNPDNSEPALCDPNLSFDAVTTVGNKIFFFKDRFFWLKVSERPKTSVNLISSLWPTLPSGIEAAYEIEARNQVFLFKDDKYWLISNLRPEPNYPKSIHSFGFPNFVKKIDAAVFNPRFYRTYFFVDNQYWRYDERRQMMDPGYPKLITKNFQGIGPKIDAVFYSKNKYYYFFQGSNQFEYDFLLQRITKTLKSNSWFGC
Protocol: (§1) MMP-7 enzymatic kinetic assay: The enzymatic activity of MMP-7 in the presence of GSM-192 Fab was measured at 37° C. by monitoring the hydrolysis of fluorogenic peptide Mca-Pro-Leu-Gly-Leu-Dpa-Ala-Arg-NH2 (SEQ ID NO: 10) at λex=340 nm and […] as described previously^30. A range of different concentrations of GSM-192 Fab (0-200 nM) were incubated with 10 nM of MMP-7 in 50 mM Tris-HCl buffer (pH 7.5 at 37° C.), 100 mM NaCl, 5 mM CaCl2, and 0.05% Brij-35 for 2 h at 37° C. The enzymatic reaction was initiated by addition of the fluorogenic peptide to a final concentration of 10 μM. Fluorescence was recorded immediately and continuously for 30 min.
(§2) Remarkably, considering that the immunization booster also included the common zinc motif, the antibody is fully selective for MMP-7. The effect of GSM-192 Fab fragment on the enzymatic activity of human MMP-7 was examined in vitro using a short fluorogenic peptide according to a standard protocol. The enzymatic activity of recombinant active MMP-7 was measured in the presence of increasing concentrations of the Fab fragment of GSM-192. […] Simultaneously the effect of the antibody on catalytic activity of related MMPs was measured.

[3] = target: MMP-14 (Homo sapiens, UniProt P50281); assay: as above; type: biochemical; details: in vitro
Protocol: as §1, §2

[4] = target: MMP-9 (Homo sapiens, UniProt P14780); assay: as above; type: biochemical; details: in vitro
MMP-9, sequence (P14780 94-707, species assumed): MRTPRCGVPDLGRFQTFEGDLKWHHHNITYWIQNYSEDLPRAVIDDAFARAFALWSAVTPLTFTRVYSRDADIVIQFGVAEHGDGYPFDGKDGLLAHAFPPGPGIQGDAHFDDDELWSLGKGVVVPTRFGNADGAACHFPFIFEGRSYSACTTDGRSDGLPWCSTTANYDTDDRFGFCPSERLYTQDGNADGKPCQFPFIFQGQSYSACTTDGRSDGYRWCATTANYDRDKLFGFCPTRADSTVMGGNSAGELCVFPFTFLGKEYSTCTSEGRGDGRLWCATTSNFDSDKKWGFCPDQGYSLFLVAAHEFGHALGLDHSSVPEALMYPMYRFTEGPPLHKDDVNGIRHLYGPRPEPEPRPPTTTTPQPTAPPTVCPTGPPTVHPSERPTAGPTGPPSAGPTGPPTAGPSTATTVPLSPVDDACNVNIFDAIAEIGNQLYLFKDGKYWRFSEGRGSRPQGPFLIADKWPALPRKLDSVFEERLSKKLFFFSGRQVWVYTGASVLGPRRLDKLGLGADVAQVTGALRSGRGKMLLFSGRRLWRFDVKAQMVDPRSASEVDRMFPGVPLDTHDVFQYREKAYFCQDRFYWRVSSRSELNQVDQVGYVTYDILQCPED
Protocol: as §1, §2

[5] = target: T1, activated MMP-7 recombinant enzyme (Homo sapiens, UniProt P09237); assay: Dot blot, activated enzyme; type: binding; details: different concentrations of enzyme
T1 sequence (P09237 95-267): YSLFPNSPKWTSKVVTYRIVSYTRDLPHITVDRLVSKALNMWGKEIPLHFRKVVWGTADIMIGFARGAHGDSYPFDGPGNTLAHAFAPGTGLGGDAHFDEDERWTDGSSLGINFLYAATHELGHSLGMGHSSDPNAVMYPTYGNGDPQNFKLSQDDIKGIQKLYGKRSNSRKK
Protocol: (§3) A dot blot was performed by immobilizing 1, 1.5 and 2 μg zymogen and activated MMP-7 recombinant enzyme on nitrocellulose membrane pre wetted with TBST using a vacuum based manifold 96 well dot-blot system (GE 10447900 Minifold dot blot). The blocking was performed for 1 hour at room temperature with 3% BSA in TBST. The membrane was then probed for binding by antibody eluted in the earlier step by incubating overnight. The anti MMP-7 mAb used was at 2 ug/ml concentration in TBST. The membrane after 3 washes in TBST was incubated with goat anti mouse HRP antibody and developed using ECL to determine the selectivity of binding towards catalytic form only.

[6] = target: T2, MMP-7 zymogen (Homo sapiens, UniProt P09237); assay: Dot blot, zymogen; type: binding
T2 sequence (P09237 18-267 limits assumed): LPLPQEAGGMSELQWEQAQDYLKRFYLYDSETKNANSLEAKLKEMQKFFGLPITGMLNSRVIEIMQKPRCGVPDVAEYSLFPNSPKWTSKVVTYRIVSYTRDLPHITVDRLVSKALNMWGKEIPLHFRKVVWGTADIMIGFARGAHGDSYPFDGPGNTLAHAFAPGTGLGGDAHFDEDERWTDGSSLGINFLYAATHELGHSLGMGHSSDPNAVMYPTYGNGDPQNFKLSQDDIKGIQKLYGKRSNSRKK
Protocol: as §3

[7] = system: RIP1-Tag2 mice serum (circulating MMP); assay: Dot blot with RIP1-Tag2 mice serum; type: binding, mouse; details: serum of RIP1-Tag2 mice with late stage insulinomas, 335 times the protein of pure MMP-7 control
Protocol: as §3
Serum isolated from RIP1-Tag2 mice with late stage insulinomas were used to determine if anti MMP-7 mAb would be bound and removed by circulating enzyme. […] The total serum protein loaded for this experiment was 335 times the protein concentration used for pure MMP-7 catalytic control.

[8] = system: RIP1-Tag2 insulinoma (PanNET) model; assay: Early stage treatment in RIP1-Tag2 (PanNET) mice; type: in vivo, mouse; details: 3 mg/kg every day IP; for area covered by CD34+ cells: islets undergoing angiogenesis
Description: (§4) RIP1-Tag2: The RIP1Tag2 (RT2) murine PanNET model was developed by the fusion of Rat Insulin II promoter region to the SV40 early region that encodes the large T and small t antigens. Although oncogene expression begins during embryonic development (E8.5), the pancreatic islets initially have a normal anatomical and histological appearance (“normal” stage). Beginning at 4-5 weeks of age, hyperplastic and dysplastic islets begin to appear, rending 50% of all islets by 10 weeks of age. Angiogenic islets appear beginning around 6 weeks of age, and represent 10% of all islets at 10.5 weeks. Angiogenic islets are recognized by their dilated blood vessels and micro-hemorrhages. Tumors form beginning at 9-10 weeks and represent 2-4% of all the islets by 14 weeks. About half of the tumors at end stage evidence either focal or widespread invasion to the surrounding acinar tissue. RIP-Tag2 mice die at approximately 14 weeks of age primarily due to hyperinsulinemia.
GSM-192 treatment reduces occurrence of advanced tumor lesions in RIP1-Tag2 (PanNET) mice in early stage treatments: RIP1-Tag2 mice (n=15) in transition stage from hyperplastic to angiogenic stage spanning 6 to 8 weeks of age were treated with GSM-192 and GST control antibody at a concentration of 3 mg/kg every day intra peritoneal (IP). Animals at age 8 weeks post treatment was sacrificed and their pancreas was embedded in paraffin blocks and sectioned. Several sections in different depth in the tissue were made for subsequent histological analysis or immunofluorescence staining. Tumor sizes and staging was done in accordance with RIP1-Tag2 manual. […] As previously observed in in-vitro cell culture, the tissue was tested for differences in cell proliferation rate (with cell division marker Ki-67) and in cell apoptosis rate (with effector apoptotic marker Caspase-3).

[9] = system: RIP1-Tag2 insulinoma (PanNET) model; assay: Late stage treatment in RIP1-Tag2 (PanNET) mice; type: in vivo, mouse; details: age 10 to 12 weeks, 5 mg/kg every other day IP
Description: as §4
The tumor volume was measured using x, y and z dimensions from a caliper scale.

[10] = 6 to 8 weeks of age, listed as anti MMP-7 mAb

crossreactivity to MMP-13 [1]: did not show crossreactivity
binding to activated form of MMP-7 [5]: bound to the catalytic domain
binding to activated form of MMP-7 ([5]; listed as anti MMP-7 Ab): selective binding
binding to total serum proteins ([7]; listed as Anti MMP-7mAb): does not bind
binding to total serum proteins ([7]; listed as anti MMP-7 mAb): did not show any binding
B1: GSM-192: monoclonal antibody to MMP-7 binding the catalytic domain, not the zymogen; VL SEQ ID NO: 1, VH SEQ ID NO: 2 (antibody, V domains shown)
VH: EVQLQQSGPELVKPGASVKIPCKASGYTFTDYNMDWMKQSHGKSLEWIGHINPNNGGTFYNQKFKDKATFIVDKSSNTAYMELRSLTSEDTAVYFCARGGGLRRGPFAYWGQGTLVTVS
VL: DIVTQSPASLAVSLGQRATISCRASESFDSYGNTFVHWYQQKPGQPPKLLIYLVSNLESGVPAGFRGRGSRTDFTLTIDPVEADDAATYYCQQNNEDPYTFGGGTKLEIKRA
modifications: GSM-192 Heavy Chain Sequence; GSM-192 Light Chain Sequence
effect on catalytic activity of MMP-12 [2]: negligible or no effect
effect on catalytic activity of MMP-14 [3]: negligible or no effect
effect on catalytic activity of MMP-9 [4]: negligible or no effect
binding to zymogen form of MMP-7 [6]: not the zymogen form; also recorded: did not bind
number of Caspase-3 positive cells (apoptosis) ([8]; 6 to 8 weeks of age): No significant change
number of Ki-67 positive cells (cell proliferation) ([8]; 6 to 8 weeks of age): No significant change
number of Caspase-3 positive cells (apoptosis) [8, 10]: does not show significant difference
number of Ki-67 positive cells (cell proliferation) [8, 10]: does not show significant difference
number of angiogenic islets / fraction of islets advancing to post angiogenic lesions ([8]; 6 to 8 weeks of age, vs GST control antibody): reduced almost by half; also recorded: half of the total seen in control mice
area covered by CD34+ cells [8]: less abundant
area covered by CD34+ cells ([8]; listed as anti MMP-7 mAb): reduces the area covered by CD34+ cells
tumor volume relative to control group [9]: less than half
